The supplement of paper PMC9112550, “Optimization of the antimicrobial peptide Bac7 by deep mutational scanning” (BMC Biology, 2022)

System: Escherichia coli TOP10
Experiment: shrunken log2 fold change of peptide-encoding DNA abundance (4.5 h post-induction vs induction); higher = less antimicrobial activity (less host growth inhibition)
Settings: time post-induction: 4.5 h; library: site-saturation at positions 5, 18, 19, 20
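Also: peptides expressed intracellularly from a pBAD plasmid library in pooled LB shake-flask culture, induced with 0.3% L-arabinose, DNA abundance read by NGS, three biological replicates, DESeq2 with apeglm shrinkage.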

Sequence: RRIRARPPRLPRPRPRPHVVPRP
- shrunken log2 fold change: -0.288

Sequence: RRIRARPPRLPRPRPRPHWWPRP
- shrunken log2 fold change: 0.5

Sequence: RRIRARPPRLPRPRPRPHYQPRP
- shrunken log2 fold change: -0.459

Sequence: RRIRARPPRLPRPRPRPHYTPRP
- shrunken log2 fold change: 0.203

Sequence: RRIRARPPRLPRPRPRPHYWPRP
- shrunken log2 fold change: -0.658

Sequence: RRIRARPPRLPRPRPRPIALPRP
- shrunken log2 fold change: 0.0719

Sequence: RRIRARPPRLPRPRPRPIAQPRP
- shrunken log2 fold change: 0.459

Sequence: RRIRARPPRLPRPRPRPIARPRP
- shrunken log2 fold change: 1.01

Sequence: RRIRARPPRLPRPRPRPICTPRP
- shrunken log2 fold change: 0.197

Sequence: RRIRARPPRLPRPRPRPIDDPRP
- shrunken log2 fold change: 0.178

Sequence: RRIRARPPRLPRPRPRPIDVPRP
- shrunken log2 fold change: -0.641

Sequence: RRIRARPPRLPRPRPRPIGDPRP
- shrunken log2 fold change: 0.24

Sequence: RRIRARPPRLPRPRPRPIGSPRP
- shrunken log2 fold change: -0.0508

Sequence: RRIRARPPRLPRPRPRPIHFPRP
- shrunken log2 fold change: -0.169

Sequence: RRIRARPPRLPRPRPRPIHHPRP
- shrunken log2 fold change: -0.302

Sequence: RRIRARPPRLPRPRPRPIIVPRP
- shrunken log2 fold change: -0.226

Sequence: RRIRARPPRLPRPRPRPIIYPRP
- shrunken log2 fold change: -0.249

Sequence: RRIRARPPRLPRPRPRPIMMPRP
- shrunken log2 fold change: -0.245

Sequence: RRIRARPPRLPRPRPRPIPLPRP
- shrunken log2 fold change: 0.0456

Sequence: RRIRARPPRLPRPRPRPIQPPRP
- shrunken log2 fold change: -0.0587

Sequence: RRIRARPPRLPRPRPRPIRMPRP
- shrunken log2 fold change: 0.183

Sequence: RRIRARPPRLPRPRPRPIRYPRP
- shrunken log2 fold change: -0.263

Sequence: RRIRARPPRLPRPRPRPITNPRP
- shrunken log2 fold change: -0.54

Sequence: RRIRARPPRLPRPRPRPIVCPRP
- shrunken log2 fold change: 0.00943

Sequence: RRIRARPPRLPRPRPRPIVYPRP
- shrunken log2 fold change: -0.248

Sequence: RRIRARPPRLPRPRPRPIWEPRP
- shrunken log2 fold change: 0.473

Sequence: RRIRARPPRLPRPRPRPIWMPRP
- shrunken log2 fold change: -0.00518

Sequence: RRIRARPPRLPRPRPRPIWSPRP
- shrunken log2 fold change: 1.14

Sequence: RRIRARPPRLPRPRPRPIYVPRP
- shrunken log2 fold change: -0.25

Sequence: RRIRARPPRLPRPRPRPKADPRP
- shrunken log2 fold change: 0.597

Sequence: RRIRARPPRLPRPRPRPKARPRP
- shrunken log2 fold change: 1.16

Sequence: RRIRARPPRLPRPRPRPKATPRP
- shrunken log2 fold change: 0.347

Sequence: RRIRARPPRLPRPRPRPKAVPRP
- shrunken log2 fold change: 0.706

Sequence: RRIRARPPRLPRPRPRPKCGPRP
- shrunken log2 fold change: 0.432

Sequence: RRIRARPPRLPRPRPRPKCRPRP
- shrunken log2 fold change: 0.237

Sequence: RRIRARPPRLPRPRPRPKEQPRP
- shrunken log2 fold change: -0.111

Sequence: RRIRARPPRLPRPRPRPKFIPRP
- shrunken log2 fold change: -0.135

Sequence: RRIRARPPRLPRPRPRPKGHPRP
- shrunken log2 fold change: 0.359

Sequence: RRIRARPPRLPRPRPRPKGTPRP
- shrunken log2 fold change: 0.233

Sequence: RRIRARPPRLPRPRPRPKKAPRP
- shrunken log2 fold change: 0.285

Sequence: RRIRARPPRLPRPRPRPKKDPRP
- shrunken log2 fold change: 0.468

Sequence: RRIRARPPRLPRPRPRPKKWPRP
- shrunken log2 fold change: 0.0405

Sequence: RRIRARPPRLPRPRPRPKLPPRP
- shrunken log2 fold change: 0.184

Sequence: RRIRARPPRLPRPRPRPKMGPRP
- shrunken log2 fold change: 0.297

Sequence: RRIRARPPRLPRPRPRPKNEPRP
- shrunken log2 fold change: 0.215

Sequence: RRIRARPPRLPRPRPRPKNGPRP
- shrunken log2 fold change: 0.246

Sequence: RRIRARPPRLPRPRPRPKNQPRP
- shrunken log2 fold change: 0.249

Sequence: RRIRARPPRLPRPRPRPKNWPRP
- shrunken log2 fold change: 0.465

Sequence: RRIRARPPRLPRPRPRPKPFPRP
- shrunken log2 fold change: 0.0753

Sequence: RRIRARPPRLPRPRPRPKPIPRP
- shrunken log2 fold change: 0.319

Sequence: RRIRARPPRLPRPRPRPKPQPRP
- shrunken log2 fold change: 0.533

Sequence: RRIRARPPRLPRPRPRPKQFPRP
- shrunken log2 fold change: 0.3

Sequence: RRIRARPPRLPRPRPRPKQWPRP
- shrunken log2 fold change: 0.587

Sequence: RRIRARPPRLPRPRPRPKRDPRP
- shrunken log2 fold change: 0.135

Sequence: RRIRARPPRLPRPRPRPKRMPRP
- shrunken log2 fold change: 0.258

Sequence: RRIRARPPRLPRPRPRPKTVPRP
- shrunken log2 fold change: 0.141

Sequence: RRIRARPPRLPRPRPRPKVDPRP
- shrunken log2 fold change: -0.0797

Sequence: RRIRARPPRLPRPRPRPKVEPRP
- shrunken log2 fold change: 0.571

Sequence: RRIRARPPRLPRPRPRPKVFPRP
- shrunken log2 fold change: 0.193

Sequence: RRIRARPPRLPRPRPRPKVKPRP
- shrunken log2 fold change: 0.171

Sequence: RRIRARPPRLPRPRPRPKVMPRP
- shrunken log2 fold change: 0.176

Sequence: RRIRARPPRLPRPRPRPKWCPRP
- shrunken log2 fold change: 0.321

Sequence: RRIRARPPRLPRPRPRPKWLPRP
- shrunken log2 fold change: 0.234

Sequence: RRIRARPPRLPRPRPRPKWWPRP
- shrunken log2 fold change: 0.149

Sequence: RRIRARPPRLPRPRPRPKYRPRP
- shrunken log2 fold change: -0.118

Sequence: RRIRARPPRLPRPRPRPLAMPRP
- shrunken log2 fold change: 0.474

Sequence: RRIRARPPRLPRPRPRPLCNPRP
- shrunken log2 fold change: -0.0439

Sequence: RRIRARPPRLPRPRPRPLEHPRP
- shrunken log2 fold change: 0.0565

Sequence: RRIRARPPRLPRPRPRPLHPPRP
- shrunken log2 fold change: 0.256

Sequence: RRIRARPPRLPRPRPRPLIPPRP
- shrunken log2 fold change: 0.449

Sequence: RRIRARPPRLPRPRPRPLIYPRP
- shrunken log2 fold change: 0.0475

Sequence: RRIRARPPRLPRPRPRPLKDPRP
- shrunken log2 fold change: 0.0838

Sequence: RRIRARPPRLPRPRPRPLKSPRP
- shrunken log2 fold change: 0.012

Sequence: RRIRARPPRLPRPRPRPLLFPRP
- shrunken log2 fold change: 0.212

Sequence: RRIRARPPRLPRPRPRPLLGPRP
- shrunken log2 fold change: 1.07

Sequence: RRIRARPPRLPRPRPRPLLLPRP
- shrunken log2 fold change: 0.313

Sequence: RRIRARPPRLPRPRPRPLMNPRP
- shrunken log2 fold change: -0.178

Sequence: RRIRARPPRLPRPRPRPLNYPRP
- shrunken log2 fold change: 0.0659

Sequence: RRIRARPPRLPRPRPRPLPRPRP
- shrunken log2 fold change: 0.768

Sequence: RRIRARPPRLPRPRPRPLQAPRP
- shrunken log2 fold change: 0.674

Sequence: RRIRARPPRLPRPRPRPLQIPRP
- shrunken log2 fold change: 0.0194

Sequence: RRIRARPPRLPRPRPRPLQSPRP
- shrunken log2 fold change: 0.625

Sequence: RRIRARPPRLPRPRPRPLRDPRP
- shrunken log2 fold change: 0.948

Sequence: RRIRARPPRLPRPRPRPLRNPRP
- shrunken log2 fold change: 0.516

Sequence: RRIRARPPRLPRPRPRPLRSPRP
- shrunken log2 fold change: 0.914

Sequence: RRIRARPPRLPRPRPRPLSAPRP
- shrunken log2 fold change: 0.636

Sequence: RRIRARPPRLPRPRPRPLSPPRP
- shrunken log2 fold change: 0.0788

Sequence: RRIRARPPRLPRPRPRPLVGPRP
- shrunken log2 fold change: 0.321

Sequence: RRIRARPPRLPRPRPRPLVMPRP
- shrunken log2 fold change: 0.0657

Sequence: RRIRARPPRLPRPRPRPLWGPRP
- shrunken log2 fold change: 0.308

Sequence: RRIRARPPRLPRPRPRPLYYPRP
- shrunken log2 fold change: -0.316

Sequence: RRIRARPPRLPRPRPRPMDAPRP
- shrunken log2 fold change: 0.293

Sequence: RRIRARPPRLPRPRPRPMDDPRP
- shrunken log2 fold change: 0.197

Sequence: RRIRARPPRLPRPRPRPMDRPRP
- shrunken log2 fold change: 0.108

Sequence: RRIRARPPRLPRPRPRPMEGPRP
- shrunken log2 fold change: 0.667

Sequence: RRIRARPPRLPRPRPRPMFKPRP
- shrunken log2 fold change: -0.106

Sequence: RRIRARPPRLPRPRPRPMGVPRP
- shrunken log2 fold change: 0.103

Sequence: RRIRARPPRLPRPRPRPMIGPRP
- shrunken log2 fold change: 0.102

Sequence: RRIRARPPRLPRPRPRPMKQPRP
- shrunken log2 fold change: 0.0535

Sequence: RRIRARPPRLPRPRPRPMMAPRP
- shrunken log2 fold change: 0.466

Sequence: RRIRARPPRLPRPRPRPMMLPRP
- shrunken log2 fold change: -0.00455

Sequence: RRIRARPPRLPRPRPRPMMTPRP
- shrunken log2 fold change: 0.331

Sequence: RRIRARPPRLPRPRPRPMNEPRP
- shrunken log2 fold change: 0.374

Sequence: RRIRARPPRLPRPRPRPMNSPRP
- shrunken log2 fold change: -0.279

Sequence: RRIRARPPRLPRPRPRPMQEPRP
- shrunken log2 fold change: 0.421

Sequence: RRIRARPPRLPRPRPRPMVMPRP
- shrunken log2 fold change: -0.00579

Sequence: RRIRARPPRLPRPRPRPMWPPRP
- shrunken log2 fold change: 0.527

Sequence: RRIRARPPRLPRPRPRPMYMPRP
- shrunken log2 fold change: -0.354

Sequence: RRIRARPPRLPRPRPRPNASPRP
- shrunken log2 fold change: 0.711

Sequence: RRIRARPPRLPRPRPRPNCMPRP
- shrunken log2 fold change: -0.421

Sequence: RRIRARPPRLPRPRPRPNEQPRP
- shrunken log2 fold change: 0.234

Sequence: RRIRARPPRLPRPRPRPNFWPRP
- shrunken log2 fold change: 0.352

Sequence: RRIRARPPRLPRPRPRPNGKPRP
- shrunken log2 fold change: 0.3

Sequence: RRIRARPPRLPRPRPRPNHMPRP
- shrunken log2 fold change: -0.299

Sequence: RRIRARPPRLPRPRPRPNIDPRP
- shrunken log2 fold change: -0.0883

Sequence: RRIRARPPRLPRPRPRPNIMPRP
- shrunken log2 fold change: -0.266

Sequence: RRIRARPPRLPRPRPRPNMMPRP
- shrunken log2 fold change: -0.142

Sequence: RRIRARPPRLPRPRPRPNQCPRP
- shrunken log2 fold change: -0.176

Sequence: RRIRARPPRLPRPRPRPNRWPRP
- shrunken log2 fold change: 0.331

Sequence: RRIRARPPRLPRPRPRPNSKPRP
- shrunken log2 fold change: -0.155

Sequence: RRIRARPPRLPRPRPRPNSNPRP
- shrunken log2 fold change: -0.0294

Sequence: RRIRARPPRLPRPRPRPNTMPRP
- shrunken log2 fold change: -0.223

Sequence: RRIRARPPRLPRPRPRPNTTPRP
- shrunken log2 fold change: -0.164

Sequence: RRIRARPPRLPRPRPRPNVEPRP
- shrunken log2 fold change: 0.327

Sequence: RRIRARPPRLPRPRPRPNVSPRP
- shrunken log2 fold change: -0.11

Sequence: RRIRARPPRLPRPRPRPNWKPRP
- shrunken log2 fold change: -0.0233

Sequence: RRIRARPPRLPRPRPRPNWYPRP
- shrunken log2 fold change: -0.245

Sequence: RRIRARPPRLPRPRPRPPCLPRP
- shrunken log2 fold change: 0.224

Sequence: RRIRARPPRLPRPRPRPPCMPRP
- shrunken log2 fold change: 0.099

Sequence: RRIRARPPRLPRPRPRPPHNPRP
- shrunken log2 fold change: 0.757

Sequence: RRIRARPPRLPRPRPRPPIHPRP
- shrunken log2 fold change: -0.11

Sequence: RRIRARPPRLPRPRPRPPIKPRP
- shrunken log2 fold change: -0.0438

Sequence: RRIRARPPRLPRPRPRPPIQPRP
- shrunken log2 fold change: 0.431

Sequence: RRIRARPPRLPRPRPRPPKAPRP
- shrunken log2 fold change: 0.685

Sequence: RRIRARPPRLPRPRPRPPKGPRP
- shrunken log2 fold change: 0.654

Sequence: RRIRARPPRLPRPRPRPPKVPRP
- shrunken log2 fold change: 0.123

Sequence: RRIRARPPRLPRPRPRPPLFPRP
- shrunken log2 fold change: 0.789

Sequence: RRIRARPPRLPRPRPRPPLMPRP
- shrunken log2 fold change: 0.408

Sequence: RRIRARPPRLPRPRPRPPLNPRP
- shrunken log2 fold change: 0.612

Sequence: RRIRARPPRLPRPRPRPPMCPRP
- shrunken log2 fold change: 0.00915

Sequence: RRIRARPPRLPRPRPRPPNLPRP
- shrunken log2 fold change: 0.342

Sequence: RRIRARPPRLPRPRPRPPNYPRP
- shrunken log2 fold change: -0.0985

Sequence: RRIRARPPRLPRPRPRPPPGPRP
- shrunken log2 fold change: 1.16

Sequence: RRIRARPPRLPRPRPRPPPKPRP
- shrunken log2 fold change: 1.29

Sequence: RRIRARPPRLPRPRPRPPPMPRP
- shrunken log2 fold change: 1.1

Sequence: RRIRARPPRLPRPRPRPPRGPRP
- shrunken log2 fold change: 0.833

Sequence: RRIRARPPRLPRPRPRPPRKPRP
- shrunken log2 fold change: 1.1

Sequence: RRIRARPPRLPRPRPRPPRLPRP
- shrunken log2 fold change: 0.829

Sequence: RRIRARPPRLPRPRPRPPRQPRP
- shrunken log2 fold change: 0.769

Sequence: RRIRARPPRLPRPRPRPPSFPRP
- shrunken log2 fold change: 0.415
